# According to the RNAGym collection of RNA variant scans (doi:10.1073/pnas.2313332121):
# Fewer inactive variants are shown than the library holds.
# B1: TPR 5TU (parent)
# chain: GGAUCUUCUCGAUCUAACAAAAAAGACAAAUCUGCCACAAAGCUUGAGAGCAUCUUCGGAUGCAGAGGCGGCAGCCUUCGGUGGCGCGAUAGCGCCAACGUUCUCAACUAUGACACGCAAAACGCGUGCUCCGUUGAAUGGAGUUUAUCAUG
# Variants of: B1
# Experiment: polymerase ribozyme fitness, log enrichment relative to wild type (log ratio); higher = more active; in vitro selection for triplet polymerase activity
# Summary of the method: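 For each subunit of a heterodimeric triplet polymerase ribozyme, a mutant library was built by PCR and transcribed, then taken through a single in vitro selection round in triplicate. Selection involved annealing to a biotinylated primer, the partner subunit and triplets, incubation frozen at −7 °C, gel excision of extended constructs, capture on streptavidin beads and RT-PCR. Genotypes were retained after Illumina sequencing of inputs and outputs only with ≥10 input reads and ≥1 read in each output. Fitness is defined as the logarithm of a genotype's enrichment relative to wild-type enrichment, using inverse-variance-weighted averages across replicates, with the logarithm taken to base 2.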
row,Variant,polymerase ribozyme fitness (log ratio)
1,C5G C87U,-0.787
2,C5G C87A,≤ -4.2
3,C5G U31A C54U G67C A110U A121G,≤ -4.2
4,U6C A21U U101A U104A U148A,≤ -4.2
5,C5U G11A A29U G70C G84A C96U,≤ -4.2
6,C5G U9C A16C A28G A30U C32G C35A G59U G92U C105U G143C,≤ -4.2
7,C5U G25C G42U U61A A107U G133U A142C U148A,≤ -4.2
8,C5U A19G A23G G58U G81A G94C C116A C129U U135C U146G,≤ -4.2
9,C5U A21G G59C C93G,-1.3
10,U6A A12U,0.206
11,C5U A73U G83A,-0.929
12,U6G A20U A41U U44A U55G G83A G88U A98U A121G U145A,≤ -4.2
13,C5G U7A U33G A91G C93U C118G A122G U144G,≤ -4.2
14,C5G U53A G94A C125A U139C A142C,≤ -4.2
15,U6C U61A G68C G84A G88U A121G G124A,≤ -4.2
16,U6A U9G C35G A60G C69G G88C C96A,≤ -4.2
17,C5U A64C G84A A122G G124U U144G U151A,≤ -4.2
18,U6C C27U U145C,-3.08
19,U6C A73U G84A G100U G124A C125G U145G,≤ -4.2
20,U6A A22G C125U,-0.424
21,C5U C96U,0.36

row,Variant,polymerase ribozyme fitness (log ratio)
1,C5G C8U A24G G34A A41G G70C A107G G124U U151G,≤ -4.2
2,U6A C69A G92U A98G U111C G152C,≤ -4.2
3,C5G U6C G50A,-2.74
4,C5G U33C G50C C57U G71A A73U A91U,≤ -4.2
5,C5G C10U A49G U56A G74C C85U U90G C93U G100U A115C G141A,≤ -4.2
6,U6C C8U U15G,-2.42
7,C5U C87U,0.457
8,C5G G65A A66G A137C G141C,≤ -4.2
9,U6C U7G A49G A66C G74A C96G,≤ -4.2
10,U6A G81C G94U C125U,-2.57
11,C5G U56A G94C A120G,-1.95
12,C5U C8G U9G U61G U77A G84A U146C,≤ -4.2
13,U6A A24C G48A C93U U127G U144A,≤ -4.2
14,C5G G50A U61G G62A A66C C96A U146A,≤ -4.2
15,C5G C85U A142U,-1.45
16,U6A G11A U45A U53G C76U U90G C118U,≤ -4.2
17,C5U A22C C85A,-9.25e-05
18,C5G G25C A28C C57G G58A C76G G143U,≤ -4.2
19,U6C A41G U56G G59A U61G C76A A91C C95G G124A,≤ -4.2
20,U6C A49G G59A G92A U111A,≤ -4.2
21,C5G U13C C18U G46U C108U A122G,≤ -4.2

row,Variant,polymerase ribozyme fitness (log ratio)
1,C5U U13A C14A U53A U55A C76A A120U G124C,≤ -4.2
2,C5U G92A C114U,-3.86
3,C5G G84A,-0.0388
4,U6A A12G A17G A40G C96A A137G,-3.74
5,U6A A12C A16U A19U C75G G84C A97G A98U U102A G124U,≤ -4.2
6,U6C A24C G86U U104G C125U,≤ -4.2
7,C5G U53G C57A G80C A91U U144C,≤ -4.2
8,U6G A12U A20U C51A C96A G100U C118A U148C,≤ -4.2
9,U6C C10A A24U A110G,≤ -4.2
10,C5U A24C C79A G84A U104A A142G,≤ -4.2
11,C5G U13A A23U A52C C87A C105U A107G,≤ -4.2
12,C5G C69G C93U,-4.12
13,C5G C85A,-1.7
14,U6C A47G G59C G92U C99A C118G,-3.32
15,C5G U13A A29G C51U G94C C114G G140C G141C U144A,≤ -4.2
16,C5G G48C G62C A97U G141U,≤ -4.2
17,U6C U9A A30U A49U C85U U146C,≤ -4.2
18,U6C C14U U44A G68U G92U A98G C99G,≤ -4.2
19,C5U A52C C76U C93A C116U C123G,-3.61
20,U6G A20U A73U U134C U145G,-3.22
21,U6A C87U,-0.846

row,Variant,polymerase ribozyme fitness (log ratio)
1,C5G C54U G84A U127G,≤ -4.2
2,U6C G48A A106G,-3.13
3,U6A U7G U31C G34A A41U,-3.68
4,C5G C36U C96G,-2.51
5,C5G C10G A28U U33G C79U,≤ -4.2
6,U6G A12U A23G C38A G83U U90G C95A,≤ -4.2
7,C5U A40C C54G G92A A121U C132U U146A,≤ -4.2
8,U6A C35A U104C,-3.88
9,U6C U61A A73C C85G,≤ -4.2
10,C5G U7G A12C A22U U90C U144A,≤ -4.2
11,C5G C18U A21C G86A C105A C123G,≤ -4.2
12,C5U G92A,-1.32
13,C5G U144G,0.355
14,C5U U15G U33C,-4.17
15,C5G C38U G50A,-1.8
16,C5G U9G G86A,-4
17,U6C C10U A20C A122C,≤ -4.2
18,U6A U7C G83A C125A,-3.64
19,U6A A22C C75U G84A A97G C108G A113C C116A U135G,≤ -4.2
20,C5G U9C A97G G141C,-3.27
